Measured values published in patent publication US20180155451A1 (published 2018).

B1: GpH7-A5/GpH7-B3 variant P271_02A/GpL16-k0 (He Ab) (antibody, human IgG1, kappa)
heavy 1: not shown
heavy 2: not shown
light: DIVMTQSPLSLPVTPGEPASISCQASESLVHSNRNTYLHWYLQKPGQSPQLLIYKVSNRFSGVPDRFSGSGSGTDFTLKISRVEAEDVGVYYCSQNTHVPPTFGQGTKVEIERTVAAPSVFIFPPSDEQLKSGTASVVCLLNNFYPREAKVQWKVDNALQSGNSQESVTEQDSKDSTYSLSSTLTLSKADYEKHKVYACEVTHQGLSSPVTKSFNRGEC
notes: He Ab: alteration only in the GpH7-B3 chain
B2: GpH7-A5/GpH7-B3 variant G236_20W/GpL16-k0 (He Ab) (antibody, human IgG1, kappa)
heavy 1: not shown
heavy 2: not shown
light: B1 light
notes: He Ab: alteration only in the GpH7-B3 chain; also called GpH7-A5/GpH7-B3-03-20W/GpL16-k0
B3: GpH7-A5/GpH7-B3 variant I336_10E/GpL16-k0 (He Ab) (antibody, human IgG1, kappa)
heavy 1: not shown
heavy 2: not shown
light: B1 light
notes: as for B1
B4: GpH7-A5/GpH7-B3 variant I336_02A/GpL16-k0 (He Ab) (antibody, human IgG1, kappa)
heavy 1: not shown
heavy 2: not shown
light: B1 light
notes: as for B1
B5: GpH7-A5/GpH7-B3 variant I336_01G/GpL16-k0 (He Ab) (antibody, human IgG1, kappa)
heavy 1: not shown
heavy 2: not shown
light: B1 light
notes: as for B1
B6: GpH7-A5/GpH7-B3 variant K326_16H/GpL16-k0 (He Ab) (antibody, human IgG1, kappa)
heavy 1: not shown
heavy 2: not shown
light: B1 light
notes: as for B1
B7: GpH7-A5/GpH7-B3 variant E269_15Y/GpL16-k0 (He Ab) (antibody, human IgG1, kappa)
heavy 1: not shown
heavy 2: not shown
light: B1 light
notes: as for B1
B8: GpH7-A5/GpH7-B3 variant A330_09D/GpL16-k0 (He Ab) (antibody, human IgG1, kappa)
heavy 1: not shown
heavy 2: not shown
light: B1 light
notes: as for B1
B9: GpH7-A5/GpH7-B3 variant E269_08L/GpL16-k0 (He Ab) (antibody, human IgG1, kappa)
heavy 1: not shown
heavy 2: not shown
light: B1 light
notes: as for B1
B10: GpH7-A5/GpH7-B3 variant E269_06M/GpL16-k0 (He Ab) (antibody, human IgG1, kappa)
heavy 1: not shown
heavy 2: not shown
light: B1 light
notes: as for B1
B11: GpH7-A5/GpH7-B3 variant I336_06M/GpL16-k0 (He Ab) (antibody, human IgG1, kappa)
heavy 1: not shown
heavy 2: not shown
light: B1 light
notes: as for B1
B12: GpH7-A5/GpH7-B3 variant P271_04F/GpL16-k0 (He Ab) (antibody, human IgG1, kappa)
heavy 1: not shown
heavy 2: not shown
light: B1 light
notes: as for B1
B13: GpH7-A5/GpH7-B3 variant K326_14T/GpL16-k0 (He Ab) (antibody, human IgG1, kappa)
heavy 1: not shown
heavy 2: not shown
light: B1 light
notes: as for B1
B14: GpH7-A5/GpH7-B3 variant I336_18N/GpL16-k0 (He Ab) (antibody, human IgG1, kappa)
heavy 1: not shown
heavy 2: not shown
light: B1 light
notes: as for B1
B15: GpH7-A5/GpH7-B3 variant I336_03V/GpL16-k0 (He Ab) (antibody, human IgG1, kappa)
heavy 1: not shown
heavy 2: not shown
light: B1 light
notes: as for B1
B16: GpH7-A5/GpH7-B3 variant E269_04F/GpL16-k0 (He Ab) (antibody, human IgG1, kappa)
heavy 1: not shown
heavy 2: not shown
light: B1 light
notes: as for B1
B17: GpH7-A5/GpH7-B3 variant K326_15Y/GpL16-k0 (He Ab) (antibody, human IgG1, kappa)
heavy 1: not shown
heavy 2: not shown
light: B1 light
notes: as for B1
B18: GpH7-A5/GpH7-B3 variant K334_10E/GpL16-k0 (He Ab) (antibody, human IgG1, kappa)
heavy 1: not shown
heavy 2: not shown
light: B1 light
notes: as for B1
B19: GpH7-A5/GpH7-B3 variant P271_03V/GpL16-k0 (He Ab) (antibody, human IgG1, kappa)
heavy 1: not shown
heavy 2: not shown
light: B1 light
notes: as for B1
B20: GpH7-A5/GpH7-B3 variant E333_13S/GpL16-k0 (He Ab) (antibody, human IgG1, kappa)
heavy 1: not shown
heavy 2: not shown
light: B1 light
notes: as for B1
B21: GpH7-A5/GpH7-B3 variant A327_09D/GpL16-k0 (He Ab) (antibody, human IgG1, kappa)
heavy 1: not shown
heavy 2: not shown
light: B1 light
notes: as for B1
B22: GpH7-A5/GpH7-B3 variant A330_08L/GpL16-k0 (He Ab) (antibody, human IgG1, kappa)
heavy 1: not shown
heavy 2: not shown
light: B1 light
notes: as for B1
B23: GpH7-A5/GpH7-B3 variant A330_14T/GpL16-k0 (He Ab) (antibody, human IgG1, kappa)
heavy 1: not shown
heavy 2: not shown
light: B1 light
notes: as for B1
B24: GpH7-A5/GpH7-B3 variant I336_04F/GpL16-k0 (He Ab) (antibody, human IgG1, kappa)
heavy 1: not shown
heavy 2: not shown
light: B1 light
notes: as for B1
B25: GpH7-A5/GpH7-B3 variant E333_01G/GpL16-k0 (He Ab) (antibody, human IgG1, kappa)
heavy 1: not shown
heavy 2: not shown
light: B1 light
notes: as for B1
B26: GpH7-B3 variant Q295_04F/GpL16-k0 (Ho Ab) (antibody, human IgG1, kappa)
heavy: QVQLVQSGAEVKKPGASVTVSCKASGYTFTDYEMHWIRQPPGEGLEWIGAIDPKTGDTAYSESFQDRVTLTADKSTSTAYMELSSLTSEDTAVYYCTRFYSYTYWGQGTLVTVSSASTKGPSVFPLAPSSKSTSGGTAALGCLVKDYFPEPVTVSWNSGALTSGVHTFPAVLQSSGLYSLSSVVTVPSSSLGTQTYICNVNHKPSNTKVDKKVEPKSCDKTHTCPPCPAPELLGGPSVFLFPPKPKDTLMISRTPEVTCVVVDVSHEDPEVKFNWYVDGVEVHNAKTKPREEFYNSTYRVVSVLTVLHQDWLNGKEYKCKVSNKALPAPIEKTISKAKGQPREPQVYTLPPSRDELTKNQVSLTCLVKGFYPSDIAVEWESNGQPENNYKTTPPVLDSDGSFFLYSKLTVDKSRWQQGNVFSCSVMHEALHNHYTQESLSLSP
light: B1 light
notes: Ho Ab: alteration in both H chains
B27: GpH7-B3 variant Q295_05P/GpL16-k0 (Ho Ab) (antibody, human IgG1, kappa)
heavy: not shown
light: B1 light
notes: as for B26
B28: GpH7-B3 variant Q295_18N/GpL16-k0 (Ho Ab) (antibody, human IgG1, kappa)
heavy: not shown
light: B1 light
notes: as for B26
B29: GpH7-B3 variant Q295_07I/GpL16-k0 (Ho Ab) (antibody, human IgG1, kappa)
heavy: not shown
light: B1 light
notes: as for B26
B30: GpH7-B3 variant S298_18N/GpL16-k0 (Ho Ab) (antibody, human IgG1, kappa)
heavy: not shown
light: B1 light
notes: as for B26
B31: GpH7-B3 variant S298_08L/GpL16-k0 (Ho Ab) (antibody, human IgG1, kappa)
heavy: not shown
light: B1 light
notes: as for B26
B32: GpH7-B3 variant S324_14T/GpL16-k0 (Ho Ab) (antibody, human IgG1, kappa)
heavy: not shown
light: B1 light
notes: as for B26
B33: GpH7-B3 variant S267_09D/GpL16-k0 (Ho Ab) (antibody, human IgG1, kappa)
heavy: not shown
light: B1 light
notes: as for B26
B34: GpH7-B3 variant S337_03V/GpL16-k0 (Ho Ab) (antibody, human IgG1, kappa)
heavy: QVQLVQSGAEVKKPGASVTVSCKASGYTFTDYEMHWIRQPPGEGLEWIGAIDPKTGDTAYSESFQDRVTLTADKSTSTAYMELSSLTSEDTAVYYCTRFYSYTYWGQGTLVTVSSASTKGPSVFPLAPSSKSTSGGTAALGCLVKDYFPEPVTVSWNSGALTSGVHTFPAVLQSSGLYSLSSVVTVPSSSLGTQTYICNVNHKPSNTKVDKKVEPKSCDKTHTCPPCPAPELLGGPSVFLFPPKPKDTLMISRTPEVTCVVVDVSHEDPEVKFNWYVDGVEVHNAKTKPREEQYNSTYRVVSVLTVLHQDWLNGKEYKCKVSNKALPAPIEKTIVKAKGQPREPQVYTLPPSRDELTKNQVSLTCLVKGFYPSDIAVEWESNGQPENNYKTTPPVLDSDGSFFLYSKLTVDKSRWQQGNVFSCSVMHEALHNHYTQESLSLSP
light: B1 light
notes: as for B26
B35: GpH7-B3 variant S324_02A/GpL16-k0 (Ho Ab) (antibody, human IgG1, kappa)
heavy: not shown
light: B1 light
notes: as for B26
B36: GpH7-B3 variant S267_03V/GpL16-k0 (Ho Ab) (antibody, human IgG1, kappa)
heavy: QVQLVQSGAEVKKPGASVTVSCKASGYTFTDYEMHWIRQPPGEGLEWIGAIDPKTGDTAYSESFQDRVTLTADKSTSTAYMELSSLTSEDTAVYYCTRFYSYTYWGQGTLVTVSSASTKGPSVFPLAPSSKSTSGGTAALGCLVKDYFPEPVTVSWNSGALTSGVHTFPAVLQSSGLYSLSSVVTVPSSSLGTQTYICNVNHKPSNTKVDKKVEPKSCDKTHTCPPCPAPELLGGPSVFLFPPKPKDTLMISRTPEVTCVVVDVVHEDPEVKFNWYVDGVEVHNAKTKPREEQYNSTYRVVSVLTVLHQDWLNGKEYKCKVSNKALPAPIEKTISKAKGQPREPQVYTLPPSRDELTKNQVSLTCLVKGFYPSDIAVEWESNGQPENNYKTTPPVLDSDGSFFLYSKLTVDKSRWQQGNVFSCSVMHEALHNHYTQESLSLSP
light: B1 light
notes: as for B26
B37: GpH7-B3 variant S298_19Q/GpL16-k0 (Ho Ab) (antibody, human IgG1, kappa)
heavy: not shown
light: B1 light
notes: as for B26
B38: GpH7-B3 variant S298_10E/GpL16-k0 (Ho Ab) (antibody, human IgG1, kappa)
heavy: not shown
light: B1 light
notes: as for B26
B39: GpH7-B3 variant S298_07I/GpL16-k0 (Ho Ab) (antibody, human IgG1, kappa)
heavy: not shown
light: B1 light
notes: as for B26
B40: GpH7-B3 variant S267_02A/GpL16-k0 (Ho Ab) (antibody, human IgG1, kappa)
heavy: not shown
light: B1 light
notes: as for B26
B41: GpH7-B3 variant S298_15Y/GpL16-k0 (Ho Ab) (antibody, human IgG1, kappa)
heavy: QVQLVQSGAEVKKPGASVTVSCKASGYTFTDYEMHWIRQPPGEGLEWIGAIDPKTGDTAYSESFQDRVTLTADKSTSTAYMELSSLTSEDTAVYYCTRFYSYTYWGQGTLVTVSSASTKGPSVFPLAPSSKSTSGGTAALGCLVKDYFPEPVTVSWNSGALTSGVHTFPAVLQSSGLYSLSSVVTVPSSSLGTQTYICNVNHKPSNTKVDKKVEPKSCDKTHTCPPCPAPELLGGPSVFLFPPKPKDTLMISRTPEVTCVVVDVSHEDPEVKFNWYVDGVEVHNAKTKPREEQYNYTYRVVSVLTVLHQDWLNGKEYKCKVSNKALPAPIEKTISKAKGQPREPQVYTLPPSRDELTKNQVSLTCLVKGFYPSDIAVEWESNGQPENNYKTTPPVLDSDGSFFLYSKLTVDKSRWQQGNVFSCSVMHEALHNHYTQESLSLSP
light: B1 light
notes: as for B26
B42: GpH7-B3 variant S337_01G/GpL16-k0 (Ho Ab) (antibody, human IgG1, kappa)
heavy: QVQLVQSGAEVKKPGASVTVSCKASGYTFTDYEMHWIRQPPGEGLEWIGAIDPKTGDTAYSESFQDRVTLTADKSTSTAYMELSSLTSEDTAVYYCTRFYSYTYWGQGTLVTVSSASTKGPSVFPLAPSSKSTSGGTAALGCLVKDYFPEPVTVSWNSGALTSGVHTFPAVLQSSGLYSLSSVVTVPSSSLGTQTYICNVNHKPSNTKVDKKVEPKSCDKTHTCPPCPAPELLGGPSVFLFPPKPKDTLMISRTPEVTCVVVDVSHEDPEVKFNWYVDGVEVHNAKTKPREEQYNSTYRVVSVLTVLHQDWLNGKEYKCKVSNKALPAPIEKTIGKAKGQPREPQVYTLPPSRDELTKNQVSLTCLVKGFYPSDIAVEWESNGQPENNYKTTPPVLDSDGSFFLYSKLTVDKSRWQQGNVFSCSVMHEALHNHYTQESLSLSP
light: B1 light
notes: as for B26
B43: GpH7-B3 variant S324_20W/GpL16-k0 (Ho Ab) (antibody, human IgG1, kappa)
heavy: not shown
light: B1 light
notes: as for B26
B44: GpH7-B3 variant S239_09D/GpL16-k0 (Ho Ab) (antibody, human IgG1, kappa)
heavy: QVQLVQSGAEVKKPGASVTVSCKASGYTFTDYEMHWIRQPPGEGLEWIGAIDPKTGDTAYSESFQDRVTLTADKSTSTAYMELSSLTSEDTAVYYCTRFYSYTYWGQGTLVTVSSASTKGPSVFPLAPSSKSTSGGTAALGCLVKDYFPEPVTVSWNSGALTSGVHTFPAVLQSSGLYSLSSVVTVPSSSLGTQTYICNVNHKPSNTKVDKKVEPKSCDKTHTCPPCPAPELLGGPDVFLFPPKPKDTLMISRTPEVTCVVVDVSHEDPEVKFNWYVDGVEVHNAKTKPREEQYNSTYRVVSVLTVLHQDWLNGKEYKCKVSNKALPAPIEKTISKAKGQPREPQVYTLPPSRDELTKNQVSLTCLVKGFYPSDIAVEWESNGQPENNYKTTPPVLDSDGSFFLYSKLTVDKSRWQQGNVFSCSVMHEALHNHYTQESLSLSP
light: B1 light
notes: Ho Ab: alteration in both H chains; also called GpH7-B3-06-09D/GpL16-k0
B45: GpH7-B3 variant S324_03V/GpL16-k0 (Ho Ab) (antibody, human IgG1, kappa)
heavy: not shown
light: B1 light
notes: as for B26
B46: GpH7-B3 variant S324_19Q/GpL16-k0 (Ho Ab) (antibody, human IgG1, kappa)
heavy: not shown
light: B1 light
notes: as for B26
B47: GpH7-B3 variant S298_16H/GpL16-k0 (Ho Ab) (antibody, human IgG1, kappa)
heavy: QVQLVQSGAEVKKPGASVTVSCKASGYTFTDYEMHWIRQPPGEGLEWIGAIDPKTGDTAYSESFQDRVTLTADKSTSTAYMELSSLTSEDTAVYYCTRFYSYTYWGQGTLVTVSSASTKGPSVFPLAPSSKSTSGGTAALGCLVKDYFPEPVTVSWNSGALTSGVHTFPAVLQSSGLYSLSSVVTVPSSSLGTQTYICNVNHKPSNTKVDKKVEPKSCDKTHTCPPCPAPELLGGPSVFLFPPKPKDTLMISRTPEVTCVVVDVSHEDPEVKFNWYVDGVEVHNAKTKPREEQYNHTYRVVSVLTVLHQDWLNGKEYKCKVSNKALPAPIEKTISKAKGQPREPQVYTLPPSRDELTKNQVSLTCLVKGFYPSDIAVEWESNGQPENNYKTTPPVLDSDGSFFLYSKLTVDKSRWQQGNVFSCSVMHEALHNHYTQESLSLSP
light: B1 light
notes: as for B26
B48: GpH7-B3 variant Q295_14T/GpL16-k0 (Ho Ab) (antibody, human IgG1, kappa)
heavy: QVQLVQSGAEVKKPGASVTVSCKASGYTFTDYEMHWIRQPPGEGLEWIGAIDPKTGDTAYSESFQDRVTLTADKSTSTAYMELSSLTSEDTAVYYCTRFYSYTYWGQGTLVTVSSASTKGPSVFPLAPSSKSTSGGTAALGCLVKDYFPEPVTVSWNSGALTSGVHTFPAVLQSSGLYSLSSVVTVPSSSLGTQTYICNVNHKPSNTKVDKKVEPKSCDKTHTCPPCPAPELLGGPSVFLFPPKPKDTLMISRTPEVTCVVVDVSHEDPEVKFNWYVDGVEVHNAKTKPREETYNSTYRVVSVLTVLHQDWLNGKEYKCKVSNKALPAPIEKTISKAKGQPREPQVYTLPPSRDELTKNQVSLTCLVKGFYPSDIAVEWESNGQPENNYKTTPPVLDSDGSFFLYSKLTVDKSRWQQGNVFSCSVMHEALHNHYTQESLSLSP
light: B1 light
notes: as for B26
B49: GpH7-B3 variant S337_02A/GpL16-k0 (Ho Ab) (antibody, human IgG1, kappa)
heavy: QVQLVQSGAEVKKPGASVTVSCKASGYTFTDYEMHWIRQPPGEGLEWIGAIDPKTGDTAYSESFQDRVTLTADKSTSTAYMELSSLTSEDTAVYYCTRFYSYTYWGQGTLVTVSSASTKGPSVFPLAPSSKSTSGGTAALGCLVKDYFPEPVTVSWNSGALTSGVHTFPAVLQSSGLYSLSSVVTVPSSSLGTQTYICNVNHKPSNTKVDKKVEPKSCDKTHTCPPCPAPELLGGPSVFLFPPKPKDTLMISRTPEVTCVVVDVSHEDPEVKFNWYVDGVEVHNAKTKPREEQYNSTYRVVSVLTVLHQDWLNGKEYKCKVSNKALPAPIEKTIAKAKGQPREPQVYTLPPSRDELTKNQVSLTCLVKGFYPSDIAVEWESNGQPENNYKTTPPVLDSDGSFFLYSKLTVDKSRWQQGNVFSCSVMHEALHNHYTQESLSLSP
light: B1 light
notes: as for B26
B50: GpH7-B3 variant S239_01G/GpL16-k0 (Ho Ab) (antibody, human IgG1, kappa)
heavy: not shown
light: B1 light
notes: as for B26
B51: GpH7-B3 variant S298_14T/GpL16-k0 (Ho Ab) (antibody, human IgG1, kappa)
heavy: not shown
light: B1 light
notes: as for B26
B52: GpH7-B3 variant Q295_13S/GpL16-k0 (Ho Ab) (antibody, human IgG1, kappa)
heavy: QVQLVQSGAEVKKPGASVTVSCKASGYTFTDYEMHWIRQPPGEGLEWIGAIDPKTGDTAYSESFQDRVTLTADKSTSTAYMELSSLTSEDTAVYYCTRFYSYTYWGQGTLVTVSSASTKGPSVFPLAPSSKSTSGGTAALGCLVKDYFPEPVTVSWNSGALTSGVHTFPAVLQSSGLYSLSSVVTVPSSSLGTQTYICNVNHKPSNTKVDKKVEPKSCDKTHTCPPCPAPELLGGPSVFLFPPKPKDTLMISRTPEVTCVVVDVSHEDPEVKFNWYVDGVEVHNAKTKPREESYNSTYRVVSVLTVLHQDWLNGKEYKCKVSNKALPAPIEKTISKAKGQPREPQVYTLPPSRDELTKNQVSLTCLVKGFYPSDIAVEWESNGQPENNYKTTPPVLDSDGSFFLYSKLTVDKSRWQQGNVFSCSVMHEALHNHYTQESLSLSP
light: B1 light
notes: as for B26
B53: GpH7-B3 variant S324_08L/GpL16-k0 (Ho Ab) (antibody, human IgG1, kappa)
heavy: not shown
light: B1 light
notes: as for B26
B54: GpH7-B3 variant S267_01G/GpL16-k0 (Ho Ab) (antibody, human IgG1, kappa)
heavy: not shown
light: B1 light
notes: as for B26
B55: GpH7-B3 variant S298_03V/GpL16-k0 (Ho Ab) (antibody, human IgG1, kappa)
heavy: not shown
light: B1 light
notes: as for B26

Molecular target: T1, FcγRIa extracellular domain with C-terminal His tag (human, UniProt P12314 16-292)
T1 construct: extracellular domain; Expressed in FreeStyle293 cells; analyte in Biacore; also called FcgRI; FcgRIa
T1 sequence (P12314 16-292): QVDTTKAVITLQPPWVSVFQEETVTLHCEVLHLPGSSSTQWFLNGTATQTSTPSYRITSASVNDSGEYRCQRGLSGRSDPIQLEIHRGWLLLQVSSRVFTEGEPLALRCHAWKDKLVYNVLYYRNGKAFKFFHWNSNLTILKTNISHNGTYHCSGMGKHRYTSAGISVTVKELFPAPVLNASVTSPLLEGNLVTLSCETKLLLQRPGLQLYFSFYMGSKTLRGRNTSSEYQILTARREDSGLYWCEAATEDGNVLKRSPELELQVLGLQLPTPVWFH
Assay: SPR Biacore, antibody captured, FcγRIa analyte; vs GpH7-A5/GpH7-B3/GpL16-k0 = 100

| Binder | He/Con_1a |
| --- | --- |
| B1 | 104 relative (control = 100) |
| B2 | 105 relative (control = 100) |
| B3 | 108 relative (control = 100) |
| B4 | 106 relative (control = 100) |
| B5 | 109 relative (control = 100) |
| B6 | 103 relative (control = 100) |
| B7 | 106 relative (control = 100) |
| B8 | 109 relative (control = 100) |
| B9 | 104 relative (control = 100) |
| B10 | 104 relative (control = 100) |
| B11 | 108 relative (control = 100) |
| B12 | 102 relative (control = 100) |
| B13 | 104 relative (control = 100) |
| B14 | 108 relative (control = 100) |
| B15 | 105 relative (control = 100) |
| B16 | 103 relative (control = 100) |
| B17 | 106 relative (control = 100) |
| B18 | 110 relative (control = 100) |
| B19 | 102 relative (control = 100) |
| B20 | 103 relative (control = 100) |
| B21 | 103 relative (control = 100) |
| B22 | 107 relative (control = 100) |
| B23 | 105 relative (control = 100) |
| B24 | 106 relative (control = 100) |
| B25 | 103 relative (control = 100) |

Molecular target: T1, FcγRIa extracellular domain with …
Assay: SPR Biacore, antibody captured, FcγRIa analyte; vs GpH7-B3/GpL16-k0 = 100

| Binder | Ho/Con_1a |
| --- | --- |
| B26 | 100 relative (control = 100) |
| B27 | 101 relative (control = 100) |
| B28 | 101 relative (control = 100) |
| B29 | 101 relative (control = 100) |
| B30 | 104 relative (control = 100) |
| B31 | 104 relative (control = 100) |
| B32 | 112 relative (control = 100) |
| B33 | 106 relative (control = 100) |
| B34 | 105 relative (control = 100) |
| B35 | 103 relative (control = 100) |
| B36 | 102 relative (control = 100) |
| B37 | 105 relative (control = 100) |
| B38 | 106 relative (control = 100) |
| B39 | 103 relative (control = 100) |
| B40 | 108 relative (control = 100) |
| B41 | 103 relative (control = 100) |
| B42 | 102 relative (control = 100) |
| B43 | 112 relative (control = 100) |
| B44 | 101 relative (control = 100) |
| B45 | 103 relative (control = 100) |
| B46 | 111 relative (control = 100) |
| B47 | 107 relative (control = 100) |
| B48 | 102 relative (control = 100) |
| B49 | 103 relative (control = 100) |
| B50 | 101 relative (control = 100) |
| B51 | 106 relative (control = 100) |
| B52 | 101 relative (control = 100) |
| B53 | 103 relative (control = 100) |
| B54 | 102 relative (control = 100) |
| B55 | 106 relative (control = 100) |
